Here are results for one molecule from paper PMC10491969 (Journal of Advanced Research, 2022).

This test addresses T1, Recombinant human TRAF2 protein (human, UniProt Q12933 1-501).
T1 sequence (looked up): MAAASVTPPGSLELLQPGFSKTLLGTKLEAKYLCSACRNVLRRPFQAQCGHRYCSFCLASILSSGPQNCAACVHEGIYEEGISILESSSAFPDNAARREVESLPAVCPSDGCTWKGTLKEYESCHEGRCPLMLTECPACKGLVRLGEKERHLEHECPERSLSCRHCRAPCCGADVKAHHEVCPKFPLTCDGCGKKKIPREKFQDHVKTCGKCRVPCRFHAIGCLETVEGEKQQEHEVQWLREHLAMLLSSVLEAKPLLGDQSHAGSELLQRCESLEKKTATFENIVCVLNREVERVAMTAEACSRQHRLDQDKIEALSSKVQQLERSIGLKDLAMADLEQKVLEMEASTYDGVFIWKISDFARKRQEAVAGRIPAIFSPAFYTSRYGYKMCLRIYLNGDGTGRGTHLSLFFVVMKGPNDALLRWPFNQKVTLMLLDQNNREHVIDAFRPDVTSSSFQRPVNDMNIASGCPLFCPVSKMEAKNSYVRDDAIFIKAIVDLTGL
Nature of the test: SPR. In general terms: SPR reads the build-up and loss of mass on a sensor chip optically.

B1: Recombinant human STING protein (natural protein, UniProt Q86WV6 135-379, looked up)
chain: GLKGLAPAEISAVCEKGNFNVAHGLAWSYYIGYLRLILPELQARIRTYNQHYNNLLRGAVSQRLYILLPLDCGVPDNLSMADPNIRFLDKLPQQTGDHAGIKDRVYSNSIYELLENGQRAGTCVLEYATPLQTLFAMSQYSQAGFSREDRLEQAKLFCRTLEDILADAPESQNNCRLIAYQEPADDSSFSLSQEVLRHLRQEEKEEVTVGSLKTSAVPSTSTMSQEPELLISGMEKPLPLRTDFS
Usually Kd stands for the equilibrium constant for the complex coming apart. As for B1, the dissociation constant Kd was determined as 502 nM.
